Data: PMC8571288

Experiments:
[1] = molecular target: RPA complex (Homo sapiens) (UniProt P27694+P15927+P35244); assay: smFRET; conditions: smFRET: 25 mM Tris-HCl pH 7.5, 0.5 mM EDTA, 10% glycerol, 50 or 150 mM KCl (temperature not stated), pull-down: 35 mM Tris-HCl pH 7.5, 10% glycerol, 0.01% …
[2] = molecular target: CST complex (CTC1-STN1-TEN1) (Homo sapiens) (UniProt Q2NKJ3+Q9H668+Q86WV5); assay: smFRET; conditions: smFRET: 25 mM Tris-HCl pH 7.5, 0.5 mM EDTA, 10% glycerol, 50 or 150 mM KCl (temperature not stated), pull-down: 35 mM Tris-HCl pH 7.5, 10% glycerol, 0.01% …
Chain of CST complex (CTC1-STN1-TEN1) (Homo sapiens) (Q2NKJ3 whole entry, chain 1 of 3): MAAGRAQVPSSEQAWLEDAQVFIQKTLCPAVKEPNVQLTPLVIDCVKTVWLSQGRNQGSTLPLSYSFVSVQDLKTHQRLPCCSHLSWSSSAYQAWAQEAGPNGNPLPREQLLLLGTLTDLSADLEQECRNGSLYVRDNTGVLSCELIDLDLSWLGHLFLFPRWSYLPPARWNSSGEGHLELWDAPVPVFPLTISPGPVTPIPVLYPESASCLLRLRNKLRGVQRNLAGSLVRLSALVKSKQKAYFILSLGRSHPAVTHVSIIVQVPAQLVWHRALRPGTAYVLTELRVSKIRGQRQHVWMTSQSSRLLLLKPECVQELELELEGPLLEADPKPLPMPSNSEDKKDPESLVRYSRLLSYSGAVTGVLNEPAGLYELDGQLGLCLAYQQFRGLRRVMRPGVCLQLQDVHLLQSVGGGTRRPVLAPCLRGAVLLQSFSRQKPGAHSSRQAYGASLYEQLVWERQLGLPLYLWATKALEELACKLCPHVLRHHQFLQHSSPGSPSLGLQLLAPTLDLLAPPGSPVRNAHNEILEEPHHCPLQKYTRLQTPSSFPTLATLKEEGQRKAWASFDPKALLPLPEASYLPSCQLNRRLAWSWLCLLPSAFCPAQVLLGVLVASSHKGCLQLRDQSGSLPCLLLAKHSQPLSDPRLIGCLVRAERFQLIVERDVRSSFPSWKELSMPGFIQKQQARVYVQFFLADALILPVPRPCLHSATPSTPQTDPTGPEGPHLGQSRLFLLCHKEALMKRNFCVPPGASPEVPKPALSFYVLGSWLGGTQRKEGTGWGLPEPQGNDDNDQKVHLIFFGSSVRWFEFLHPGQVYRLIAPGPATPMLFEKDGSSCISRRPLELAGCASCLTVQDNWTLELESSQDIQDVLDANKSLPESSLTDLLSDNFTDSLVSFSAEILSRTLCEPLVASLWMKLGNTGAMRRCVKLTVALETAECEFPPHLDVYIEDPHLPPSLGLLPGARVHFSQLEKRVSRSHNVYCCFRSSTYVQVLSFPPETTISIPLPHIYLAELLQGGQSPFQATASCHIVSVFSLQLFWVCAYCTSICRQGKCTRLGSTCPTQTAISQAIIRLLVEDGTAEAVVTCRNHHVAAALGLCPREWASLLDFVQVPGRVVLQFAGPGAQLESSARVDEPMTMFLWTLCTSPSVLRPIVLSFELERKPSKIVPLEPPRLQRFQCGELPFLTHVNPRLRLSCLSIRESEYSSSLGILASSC
Chain of CST complex (CTC1-STN1-TEN1) (Homo sapiens) (Q9H668 whole entry, chain 2 of 3): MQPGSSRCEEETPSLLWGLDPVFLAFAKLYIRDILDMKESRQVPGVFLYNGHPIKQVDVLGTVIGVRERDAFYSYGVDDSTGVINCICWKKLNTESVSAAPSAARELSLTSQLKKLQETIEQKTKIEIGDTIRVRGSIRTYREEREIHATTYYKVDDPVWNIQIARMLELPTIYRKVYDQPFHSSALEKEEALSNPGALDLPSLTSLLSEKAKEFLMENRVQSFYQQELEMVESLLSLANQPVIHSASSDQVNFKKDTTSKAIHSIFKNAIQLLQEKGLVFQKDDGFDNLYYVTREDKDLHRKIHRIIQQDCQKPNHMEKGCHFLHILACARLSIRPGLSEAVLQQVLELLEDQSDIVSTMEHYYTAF
Chain of CST complex (CTC1-STN1-TEN1) (Homo sapiens) (Q86WV5 whole entry, chain 3 of 3): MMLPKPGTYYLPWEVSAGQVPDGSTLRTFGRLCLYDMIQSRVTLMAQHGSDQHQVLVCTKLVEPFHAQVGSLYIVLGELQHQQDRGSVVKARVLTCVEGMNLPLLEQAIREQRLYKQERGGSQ

Chain of RPA complex (Homo sapiens) (P27694 whole entry, chain 1 of 3): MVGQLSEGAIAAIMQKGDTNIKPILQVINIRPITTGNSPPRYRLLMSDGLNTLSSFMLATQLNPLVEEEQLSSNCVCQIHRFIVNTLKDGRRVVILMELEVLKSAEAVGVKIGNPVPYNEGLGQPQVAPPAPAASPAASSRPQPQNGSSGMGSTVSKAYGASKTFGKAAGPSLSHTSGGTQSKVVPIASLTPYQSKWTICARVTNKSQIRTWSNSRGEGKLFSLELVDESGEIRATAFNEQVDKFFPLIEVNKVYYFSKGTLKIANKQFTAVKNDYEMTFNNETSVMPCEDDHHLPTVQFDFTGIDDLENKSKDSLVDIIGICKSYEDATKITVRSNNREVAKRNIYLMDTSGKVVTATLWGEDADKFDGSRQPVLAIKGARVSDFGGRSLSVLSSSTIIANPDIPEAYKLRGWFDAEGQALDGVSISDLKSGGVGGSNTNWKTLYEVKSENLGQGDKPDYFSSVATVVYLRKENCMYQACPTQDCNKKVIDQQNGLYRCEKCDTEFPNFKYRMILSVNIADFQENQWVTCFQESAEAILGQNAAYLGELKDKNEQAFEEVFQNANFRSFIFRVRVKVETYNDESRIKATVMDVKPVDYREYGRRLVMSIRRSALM
Chain of RPA complex (Homo sapiens) (P15927 whole entry, chain 2 of 3): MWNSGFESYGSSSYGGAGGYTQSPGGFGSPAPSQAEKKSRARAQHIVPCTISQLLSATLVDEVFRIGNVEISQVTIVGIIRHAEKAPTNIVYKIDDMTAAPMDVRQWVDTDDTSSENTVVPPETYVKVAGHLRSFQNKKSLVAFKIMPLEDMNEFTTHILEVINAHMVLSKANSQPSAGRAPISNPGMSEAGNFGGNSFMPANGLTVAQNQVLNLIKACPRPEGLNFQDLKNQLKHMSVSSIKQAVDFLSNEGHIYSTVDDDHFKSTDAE
Chain of RPA complex (Homo sapiens) (P35244 whole entry, chain 3 of 3): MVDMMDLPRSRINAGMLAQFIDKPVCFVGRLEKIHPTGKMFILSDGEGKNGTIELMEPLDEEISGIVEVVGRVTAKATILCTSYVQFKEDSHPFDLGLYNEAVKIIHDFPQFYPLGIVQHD

ACGCTGCCGAATTCTACCAGTGCCTTGCTAGGACATCTTTGCCCACCTGCAGGTTCACCC / GGGTGAACCTGCAGGTGGGCAAAGA [35-nt ssDNA overhang (Oligo 5+6)]
Kd ([1]; 50 mM KCl, Hill slope 3.14): 0.12 nM | Kd ([1]; 150 mM KCl, Hill slope 2.83): 0.11 nM | Kd ([2]; 50 mM KCl, Hill slope 2.74): 0.12 nM | Kd ([2]; 150 mM KCl, Hill slope 1.4): 0.29 nM
